Results from US12097265B2, “Cytotoxic particles for targeting P2X7 receptor” (BIOSCEPTRE (AUST) PTY LTD, priority 2016, dated 2024).

How the values were obtained:
[1] = tested on: 4T1-luc2 murine breast cancer cells; assay: Biodistribution imaging of fluorescently labelled nanoparticles in 4T1-luc2 tumour bearing mice; type: in vivo
Protocol: The near-infrared (NIR) lipophilic fluorescent dye DiR (ThermoFisher) was incorporated into the lipid bilayer of naked nanoparticles, nanoparticles coated with HEL4 (isotype) and nanoparticles coated with variable domains for binding to anti-P2X7R (P2X7-binding domain-coated nanoparticles, or “BIL03s-coated”). Female Balb/c mice were inoculated orthotopically (4th mammary fat pad) with 4T1-luc2 murine breast cancer cells. A 50 μL dose of nanoparticles was injected intravenously at study day 0 and near-infrared (NIR) imaging was performed at 6, 12, 24, 48 and 96 […]. At termination, excised liver, spleen and tumour NIR imaging was performed and bioluminescence imaging was performed on tumour tissues.

4T1 murine breast tumour [2] = assay: Efficacy of gemcitabine liposome nanoparticles in the 4T1 murine breast tumour model; type: in vivo, mice; conditions: 0.2 mg gemcitabine, intravenously 3 times a week; versus HEL4-coated nanoparticles containing gemcitabine; P=0.0456
Protocol: This study aimed to determine the efficacy of P2X7-binding domain-coated nanoparticles (i.e., “BIL03s-coated”) and HEL4-coated nanoparticles to deliver the cytotoxic agent gemcitabine to tumours in the 4T1 murine breast tumour model.
Nanoparticles were administered intravenously, 3 times a week. Nanoparticles contained either 0.2 mg gemcitabine or PBS buffer (control).
Tumour volume was measured over the study period (see FIG. 10). Mice were terminated when estimated tumour volume exceeded 1000 mm^3.

4T1 murine breast tumour [3] = assay: Dosing regimen investigation: coated nanoparticles versus free gemcitabine, tumour growth; type: in vivo, mice

B1: P2X7-binding domain-coated nanoparticles containing gemcitabine: Liposome of DOPC, oleyl-gemcitabine carbamate conjugate and Maleimido-Succinyl-PEG4000-Oleate, conjugated to an anti-P2X7R single … (conjugate)
VH: EVQLLESGGGLVQPGGSLRLSCAASGFTFRNHDMGWVRQAPGKGLEWVSAISGSGGSTYYANSVKGRFTISRDNSKNTLYLQMNSLRAEDTAVYYCAEPKPMDTEFDYRSPGTLVTVSS
accumulation in the excised tumour ([1]; ex vivo bioluminescence imaging at 96 hr, FIG. 9, versus naked nanoparticles): higher accumulation in the excised tumour | accumulation in tumours ([1]; whole animal NIR imaging and ex vivo bioluminescence, 50 μL intravenous on day 0, versus naked or HEL4-coated control nanoparticles): greater accumulation in tumours | retention in the tumour ([1]; whole animal NIR imaging, FIG. 7, versus non antibody-conjugated particles): retained in the tumour much longer | survival (4T1 murine breast tumour [2]): prolonged survival | tumour suppression (tumour volume) (4T1 murine breast tumour [2]): greater tumour suppression | efficacy for inhibiting tumour growth (4T1 murine breast tumour [3]; equivalent to 0.3 mg gemcitabine, intravenously twice per week (FIG. 11), versus 0.3 mg free gemcitabine): comparable | release of cytotoxic agent (4T1 murine breast tumour [3]; general statement): sustained release | toxicity (4T1 murine breast tumour [3]; general statement, versus existing cancer treatments): lower toxicity
